This is an account of results in paper PMC10770723 (2023).

In the assay the target is T1, recombinant Der p 2 (Dermatophagoides pteronyssinus …, UniProt P49278).
T1 chain: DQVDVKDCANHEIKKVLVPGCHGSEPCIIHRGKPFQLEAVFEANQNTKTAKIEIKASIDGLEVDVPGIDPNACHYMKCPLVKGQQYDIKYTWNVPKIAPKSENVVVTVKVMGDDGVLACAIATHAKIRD
Nature of the assay: ELISA (coated rDer p 2, Siglec-Fc binding); Unmodified rDer p 2 does not bind; binding to Siglec-9-Fc requires chemical conjugation of α2-3 sialic acids to rDer p 2 (sia-rDer p 2).

B1: Siglec-9–hFc chimera (protein)
chain: QTSKLLTMQSSVTVQEGLCVHVPCSFSYPSHGWIYPGPVVHGYWFREGANTDQDAPVATNNPARAVWEETRDRFHLLGDPHTKNCTLSIRDARRSDAGRYFFRMEKGSIKWNYKHHRLSVNVTALTHRPNILIPGTLESGCPQNLTCSVPWACEQGTPPMISWIGTSVSPLDPSTTRSSVLTLIPQPQDHGTSLTCQVTFPGASVTTNKTVHLNVSYPPQNLTMTVFQGDGTVSTVLGNGSSLSLPEGQSLRLVCAVDAVDSNPPARLSLSWRGLTLCPSQPSNPGVLELPWVHLRDAAEFTCRAQNPLGSQQVYLNVSLQSKATSGVTQG
As to B1, the binding result is “no binding”.
